Reference: the DeepSol protein solubility set

Assay: soluble on expression in E. coli; label from the status in PepcDB or PDB records

Row | Sequence | soluble on expression in E. coli
1 | MAFELPKLPYAFDALEPHFDKETMEIHHDRHHNTYVTKLNAAVEGTDLESKSIEEIVANLDSVPANIQTAVRNNGGGHLNHSLFWELLSPNSEEKGTVVEKIKEQWGSLEEFKKEFADKAAARFGSGWAWLVVNNGQLEIVTTPNQDNPLTEGKTPILGLDVWEHAYYLKYQNKRPDYIGAFWNVVNWEKVDELYNATK | not soluble
2 | MGSDKIHHHHHHMTDLIYNDPDFVQFYDIENQDGRADFDYCVRLARDGGSVLDLGCGTGQLAAEMAQGCNVTGVDPASAMLDVARRRTGGDKVDWVVADARTVRLGRRFDLVLLTGHVFQVFLTDEDQRAVLRTIAEHLGPGGRFIFDTRNPAVEAWLEWTPQRSERMVEHPSLGTVRAWYDADWDAASAVVTYSTFYEIPGGRPILGAESKIAFPKKQDLAGMLDDAGLLVEQWLGDWQGEPYADTSPEIIPIGRLR | not soluble
3 | MEPIDIARLEEAVVSFYRSNSQNQAITHEWLTDAEASPQAWQFSWQLMQLGKSQEVQFFGAITLHSKLMKHWHEVPPENREELKQKILESIVRFAGGPKIVLNRLCISLGAYIVHMLGEWPGAIEEVINTFQNQRMPNVSADVQLWIMLEVLTAIPEEAQVIHTSVKRVVLRAEIAKRVQLVIHTVERYLKLQMNRVWDAEAYSNMNRAVKCVGTWIKNIGYTIEGCVTITAVLLEVVHKCYWPCIHAGDGCMTADENELAESCLKTMVNIIIQPDCHNYPKTAFVLIKMFLDSLSEITKTEWKRENDNEDIIVHIYMLFVSSVERHSTLLLSGITSADPELSILVHRIVQEILHCTDKPGIYPVEESCSTMALAFWYMLQDEVFAMSNDEQKHKCWEYIKPLYAHLTRILVRKSEQPDEKSLAKWSSDDLECFRCYRQDISDTFMYCYDVLNDYILEILAAMLDEAIADLQRHPTHWTKLEACIYSFQSVAEHFGGEEKRQIPRLMRVLAEIPYEKLNVKLLGTALETMGSYCNWLMENPAYIPPAINLLVRGLNSSMSAQATLGLKELCRDCQLQLKPYADPLLNACHASLNTGRMKNSDSVRLMFSIGKLMSLLRPEEIPKYLDIIVSPCFEELQAICQADSKTPAARIRTIFRLNMISTLFSSLNTDVDEQATDQPIVQPVLLVMQRTMPIFKRIAEMWVEEIDVLEAACSAMKHAITNLRSSFQPMLQDLCLFIVASFQTRCCAPTLEISKTAIVMFFKDEGCKPLMQQLLREFIQHSFKLFESTPEQNFSNISDTMETFFGCLTQIIKKIPQVLEDKTLAYDRLVFYAQRGMTLPESGAIRNSIQFLTHFVMQSRNHAHVTEVVLATGEQTLYTAMMCVGYLTPRSQVDKFADILLAMNRKYAAEMAVWMKSLMSTPNFPTQLITDADKTRYTALIIKEKVNKRLLQQHLSEMAMKTRGLTEKFQ | soluble
4 | MKDLLQAQQKLIPDLIDKMYKRFSILTTISKNQPVGRRSLSEHMDMTERVLRSETDMLKKQDLIKVKPTGMEITAEGEQLISQLKGYFDIYADDNRLSEGIKNKFQIKEVHVVPGDADNSQSVKTELGRQAGQLLEGILQEDAIVAVTGGSTMACVSEAIHLLPYNVFFVPARGGLGENVVFQANTIAASMAQQAGGYYTTMYVPDNVSETTYNTLLLEPSVINTLDKIKQANVILHGIGDALKMAHRRQSPEKVIEQLQHHQAVGEAFGYYFDTQGQIVHKVKTIGLQLEDLESKDFIFAVAGGKSKGEAIKAYLTIAPKNTVLITDEAAAKIILE | not soluble
5 | MGSDKIHHHHHHMQPNPTLDQLQIFVAVADSGSFSAAGRKLNRAQSVISYGIANLEAQLGLKLFEREGTREPQLTEIGRSMLEDARRMIGVLQRMRSRVDGHHHGLEAEVALSVDAALPSPVLVRVLKAFEAQFPTVMLRLHIGSLGLIPDHVVSGQADLGIGGLLGDVDVHLVRIGFMSIVLAAAPSHPLALLPKPLAIEDVREHTQLVVTDQSERTKGRDFGVFAYRTWRLTDMRTKHMLMREGLGWGGLPRWLIADDLVNGRLVELDLEPFSEVKSPMFAMHRNDSSPKPAAAWLIERFKRGLGCFNEFEPGEVPEDEPETIRQSAP | not soluble
6 | MAHSAAAVPLGALEQGCPIRVEHDRRRRQFTVRLNGCHDRAVLLYEYVGKRIVDLQHTEVPDAYSGRGIAKHLAKAALDFVVEEDLKAHLTCWYIQKYVKENPLPQYLERLQP | not soluble
7 | MSSSSPNSSRSEAVNGRVVVPTGGSRRENSGPARGPAGFSATVLPCDEATKAAFAKDWKDLEQENLSSADYYFNSYAHFGIHEEMIKDSVRTGCYQRAICQNAHLFANKVVLDVGSGTGILSLFAAKAGAKHVYGIECSEIVNIARKIVKENDMEDKVTFVQGKAEEVSLPVEKVDIIISEWMGYFLLYESMLDTVLFCRDKWLKPGGMIFPDKAALYVAAIEDADYKEEKIGYWGNVYGFNFSCVRRCVMEEPIVDTVDENAVSTTSCCVLKLDLLTCTKEDLDFCAPYEITLRRKDFLHAFIAWFDVWFSHCHKPVVLSTGPHCRYTHWKQTVFYMEDVLVADVGDKVEGMIAVKKSQKNPRDLDIKISYTFNPPHAPAAIENTQFYRLR | soluble
8 | MAHHHHHHMAPPNGTVCCPEDLKMYSTIQLNQEIEISKNPFPLHEINKKNDIPLCAQEFSDLTDPLYIKKICLEKVPEWNHFTEDNLRVKQILSGLTNQLFEVGLKEETANNYNSIRTRVLFRIYGKHVDELYNTISEFEVYKTMSKYKIAPQLLNTFNGGRIEEWLYGDPLRIDDLKNPTILIGIANVLGKFHTLSRKRHLPEHWDRTPCIFKMMEKWKNQLFKYKNIEKYNCDIHKYIKESDKFIKFMKVYSKSDNLANTIVFCHNDLQENNIINTNKCLRLIDFEYSGFNFLATDIANFFIETSIDYSVSSYPFFEIDKKKYISYENRKLFITAYLSNYLDKSLVVPTPKLIDEILEAVEVQALGAHLLWGFWSIIRGYQTKSYNEFDFFLYAEQRLKMYDDQKEYLISNNI | not soluble
9 | MSLKQYLITGGTGMVGSQLVNEIKKSDSHITILTRHDQISNDKKISYVNWAKSGWEHKVPQNIDVVINLAGATLNKRWTPEYKQTLMLSRIQSTQALYELFKSRNKAPKVLFNASATGYYPPDLFMSYTEVYKTLPFDFLSDIVYQWERFAQQFEQLGTRVVIGRFGMILSNEGGALQTMKLPYKYYIGGKLGSGQQWYSWIHINDLIQAILFLINNESASGPFNLTAPIPERQNLFGYTLARAMHKPHETWAPSLAMRLILGQMSTVVLDTQKVLPNKIQALGFQFKYSNLKMALEDLIKEGHHHHHH | soluble
10 | MSIATTPLHTALSLPQIQSFAASDMAAIDTLIHDRLTSDIVLINQIADHIICSGGKRLRPMLTMLAGHAIGPTGPHHHQLAAIIEFIHTATLLHDDVVDGSELRRSRSTANALWGNAPSVLVGDFLYSRSFQLMTELANLEVMQILAETTNRISEGEVLQLLHVHNPDTDETTYLSVIERKTAILFAAAAQLGALASHADTQTQTRMYEYGMQLGYAFQITDDVLDYTANNSQLGKNLGDDLAEGKATLPVIHAMTHSDAATCERLRMIISKGDSDAMPEVLNAIRTTGSLDYSRQRASAYAATAERALDGLPETEAVAALRGLARYAVQRTY | not soluble
11 | MSLRKGNEIELLVEGIEFPAKGFGFVDGLKVYAKNTFPGQKVFGRVTKKRKEYAEIRVSEVREKASYEEDQKCPHFGVCGGCSSQTIPYEKQLELKVEQVKDLFKEAEVPTGEFLGIETSPIQWEYRNKMEYTFGDEEKGGELTLGMHMKGKSFGIVNVDKCVLVDEDFRNILDTTVKYFREKGLPFYKIMPRTGYLRYLVVRKSVKTEEILVNLVTTTQIDFDLTEFTELIKGLNLKGKLKSIIHTESDALSEAVIPEKVNILYGDDFITENLLGLNFKISPFSFFQTNSLGAEKLYSIVRDFMGAADNKVVFDLYCGTGTIGQIAAGKASKVIGIELIEEAAMAANENAKLNGLNNCNFIAGDVAEVIKTVKDKPDIIILDPPRSGVHPKALDYVIKFNAPQIIYVSCNPKTLVTDLKVLEAKGYEIEKTLLMDMFPNTPHVETVVKLNKKEGHHHHHH | soluble
12 | APAEPAAPKSGEAETPPKHPGVLKVEAILEKVQGLEQAVDSFEGKKTDKKYLMIEEYLTKELLALDSVDPEGRADVRQARRDGVRKVQTILEKLEQKA | soluble
13 | MKKLLLPLVLAGVLLATLLVSQSSSSPSLRVAYVDVEKATESYYKWQDLNEKYKRDYSFYQNKLKEMEDELKKMQEEGRSQEEIQAKQKEILSKKAEYENLLKTEYQQKIQEVMKEVVSKIQEYASVMGYDLVIAKQMVLYGKPSYDITDQVIAYINQK | not soluble
